What was measured:
Thrombin [1] = biological target: T1, Thrombin (Homo sapiens, UniProt P00734); assay: Inhibitory action of hirudin against thrombin induced death; type: in vivo, mice; set-up: Thrombin (10 NIH unit/10 g) was administered intravenously to male mice; details: for Score: score 0 normal, 1 disappearance of roll over reflection, 2 death within 20 minutes
Description: Thrombin (10 NIH unit/10 g) was administered intravenously to male mice (20-25 g), without anesthesia, and the anti-thrombin activity of the tested compound was evaluated by observing the disappearance of roll over reflection and death as indexes. All the tested compounds were dissolved in saline, and 0.05 ml/10 g were administered intravenously 5 min prior to the thrombin injection.

Thrombin [2] = biological target: T1, Thrombin; assay: anti-thrombin activity, chromogenic substrate chromozyme TH; type: biochemical; set-up: purchased Sigma; details: purified by C4 reverse phase HPLC
Description: Precipitated cells of each sample were suspended in 1 ml of 50 mM Tris-HCl (pH7.5) containing 25% sucrose and 1 mM EDTA, followed by incubation at room temperature for 10 minutes. After collecting the cells by centrifugation at 6,000×g for 10 minutes, the cells were suspended in 1 ml of cold water to release the substances in the periplasmic space by osmotic shock. Cells were removed from the periplasmic fraction by centrifugation at 6,000×g for 10 minutes. The amount of secreted and periplasmically-accumulated hirudin was determined by measuring the anti-thrombin activity in the supernatant. The antithrombin activity is based on quantitative measurement of the color intensity generated by thrombin's hydrolytic activity on the synthetic chromogenic substrate chromozyme TH (Tocylglycil-prolylarginine-4-nitroanilideacetate, Boeringer-Mannheim) and hirudin's inhibitory activity against thrombin, which will repress color generation.
This reaction was carried out as follows. […]
Both the substrate and chromozymeTH were added to a final concentration of 200 μM to measure the release of p-nitroanilide by the increase of absorbance at 405 nm of the solution per 1 minute, and the anti-thrombin activity (ATU) was calculated.

[3] = Prolongation of bleeding time (tail vein puncture wound); type: in vivo, mice; details: for Bleeding time: wound 5 minutes after administration
Description: Samples were injected into male mice (20-25 g) under anesthesia using sodium pentobarbital (40 mg/kg i.p.) via their tail vein. A puncture wound was made by inserting a 21 G needle (outer diameter 0.85 mm) into the other side of the tail vein 5 minutes after the administration of the test compounds, and the bleeding time of the wound was measured. A filter paper was put on the wound, with changes every 15 seconds. Bleeding time is defined as the time required until no red spot is observed on the filter paper.

Molecule	Score (Thrombin [1]; 200 μg/10 g weight i.v. 5 min prior to thrombin 10 NIH unit/10 g)	Score (Thrombin [1]; 500 μg/10 g weight i.v. 5 min prior to thrombin 10 NIH unit/10 g)	anti-thrombin activity (specific / relative activity) of purified product (Thrombin [2])	Score (Thrombin [1]; 20 μg/10 g weight i.v. 5 min prior to thrombin 10 NIH unit/10 g)	Score (Thrombin [1]; 50 μg/10 g weight i.v. 5 min prior to thrombin 10 NIH unit/10 g)	Score (Thrombin [1]; 100 μg/10 g weight i.v. 5 min prior to thrombin 10 NIH unit/10 g)	inhibitory activity compared with hirudin HV1 in thrombin induced death (Thrombin [1]; in vivo, mice, relative to HV1)	Bleeding time ([3]; 50 μg/10 g weight i.v.)	Bleeding time ([3]; 100 μg/10 g weight i.v.)	Bleeding time ([3]; 200 μg/10 g weight i.v.)	bleeding tendency compared with hirudin HV1 ([3]; mice, in words)
HV1: hirudin variant 1, natural anti-coagulation peptide of Hirudo medicinalis, produced here by secretion from E. coli [reference compound]	0.6	0.4									
HV1C3: hirudin analog having the hirudin HV1 amino acid sequence up to the 52nd amino acid and thereafter substituted with the sequence of HV3 (protein) VVYTDCTESGQNLCLCEGSNVCGQGNKCILGSDGEKNQCVTGEGTPKPQSHNQGDFEPIPEDAYDE			11,250 ATU/mg	1.2	0.6	0.4	4-5 times	264.0 ± 17.6 s	291.0 ± 30.2 s	369.0 ± 34.9 s	less bleeding than hirudin HV1
HV3: natural hirudin variant of 66 amino acids, produced here by secretion from E. coli (protein) ITYTDCTESGQNLCLCEGSNVCGKGNKCILGSQGKDNQCVTGEGTPKPQSHNQGDFEPIPEDAYDE			8139 ATU/mg								

Reference: patent publication US5516656A, “Production of a new hirudin analog and anticoagulant pharmaceutical composition containing the same” (Nippon Mining Company, Limited, priority 1990, dated 1996)
